Measurements reported in publication PMC4658561, “A mechanism of glucose tolerance and stimulation of GH1 β-glucosidases” (Scientific Reports, 2015).
Substitutions are numbered along the chain they refer to.

Tests used:
Bgl1B [1] = biological target: T1, Bgl1B (uncultured bacterium, UniProt D0VEC8, H228T); assay: relative activity on pNPG versus glucose concentration; assay type: biochemical; details: pH […], stimulation at low concentration, transglycosylation acceptor
T1 construct: pET-22b(+) NdeI/XhoI, C-terminal His6 (kept), E. coli BL21(DE3), Ni-NTA purified; GH1, EC 3.2.1.21; residues V227, H228, N301, V302
T1 sequence (D0VEC8 1-449 H228T): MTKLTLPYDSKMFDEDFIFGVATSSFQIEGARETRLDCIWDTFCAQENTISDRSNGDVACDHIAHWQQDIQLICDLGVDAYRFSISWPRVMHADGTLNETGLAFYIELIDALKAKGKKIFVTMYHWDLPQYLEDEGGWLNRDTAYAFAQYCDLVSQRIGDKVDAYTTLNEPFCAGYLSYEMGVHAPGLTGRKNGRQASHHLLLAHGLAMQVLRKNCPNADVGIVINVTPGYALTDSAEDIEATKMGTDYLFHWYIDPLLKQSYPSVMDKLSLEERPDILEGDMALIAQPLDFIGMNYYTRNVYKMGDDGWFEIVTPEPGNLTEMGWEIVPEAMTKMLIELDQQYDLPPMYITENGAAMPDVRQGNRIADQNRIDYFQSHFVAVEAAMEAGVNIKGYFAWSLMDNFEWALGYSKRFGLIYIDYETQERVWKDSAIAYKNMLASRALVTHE

Bgl1A = biological target: T2, Bgl1A (uncultured bacterium, UniProt D5KX75); assay: as above; assay type: biochemical; details: pH […], stimulation at low concentration, transglycosylation acceptor
T2 construct: pET-22b(+) NdeI/XhoI, C-terminal His6 (kept), E. coli BL21(DE3), Ni-NTA purified; GH1, EC 3.2.1.21; residues T228, Q301, F302
T2 sequence (D5KX75 1-442): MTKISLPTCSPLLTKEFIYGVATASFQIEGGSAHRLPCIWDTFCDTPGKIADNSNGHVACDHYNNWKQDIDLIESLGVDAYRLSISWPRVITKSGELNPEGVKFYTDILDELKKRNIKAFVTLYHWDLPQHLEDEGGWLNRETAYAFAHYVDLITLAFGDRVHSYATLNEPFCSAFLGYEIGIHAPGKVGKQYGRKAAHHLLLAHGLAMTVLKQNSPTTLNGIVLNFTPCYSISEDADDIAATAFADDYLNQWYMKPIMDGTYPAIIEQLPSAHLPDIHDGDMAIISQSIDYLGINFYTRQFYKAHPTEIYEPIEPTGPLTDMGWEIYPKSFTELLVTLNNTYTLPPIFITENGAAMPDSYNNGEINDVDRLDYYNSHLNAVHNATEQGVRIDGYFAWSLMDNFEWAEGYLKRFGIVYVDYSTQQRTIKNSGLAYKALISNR

Bgl1B [2] = biological target: T3, Bgl1B (uncultured bacterium, UniProt D0VEC8); assay: as above; assay type: biochemical; details: pH […], product inhibition, competitive
T3 construct: pET-22b(+) NdeI/XhoI, C-terminal His6 (kept), E. coli BL21(DE3), Ni-NTA purified; GH1, EC 3.2.1.21; residues V227, H228, N301, V302
T3 sequence (D0VEC8 1-449): T1 sequence (D0VEC8 1-449 H228T) with T228H

[3] = system: T4, O=[N+]([O-])c1ccc(O[C@@H]2O[C@H](CO)[C@@H](O)[C@H](O)[C@H]2O)cc1; assay: purified protein; assay type: biochemical, uncultured bacterium; details: no glucose, 50 mM Na2HPO4-citric acid buffer pH 7.0, optimal conditions
T4 construct: pET-22b(+) NdeI/XhoI, C-terminal His6 (kept), E. coli BL21(DE3), Ni-NTA purified; GH1, EC 3.2.1.21; residues T228, Q301, F302

[4] = system: T5, O=[N+]([O-])c1ccc(O[C@@H]2O[C@H](CO)[C@@H](O)[C@H](O)[C@H]2O)cc1; assay: purified protein; assay type: biochemical, uncultured bacterium; details: no glucose, 50 mM Na2HPO4-citric acid buffer pH 7.0, optimal conditions
T5 construct: pET-22b(+) NdeI/XhoI, C-terminal His6 (kept), E. coli BL21(DE3), Ni-NTA purified; GH1, EC 3.2.1.21; residues V227, H228, N301, V302

Molecule | Km [4] [µM] | Vmax [4] [µM/min] | kcat/Km [4] [M⁻¹ s⁻¹] | further results
OC[C@H]1OC(O)[C@H](O)[C@@H](O)[C@@H]1O (stereo partly drawn) [glucose] |  |  |  | relative activity (Bgl1B [1]): only B:H228T exhibited glucose stimulation, essentially distinctive from wild-type Bgl1B; relative activity (Bgl1A): Bgl1A displayed high glucose tolerance, and was stimulated by low concentrations of glucose; relative activity (Bgl1B [2]): the activity of Bgl1B was persistently inhibited by glucose
Bgl1A (uncultured bacterium) |  |  |  | Km [3]: 690 ± 70 µM; Vmax [3]: 2.7 µM/min; kcat/Km [3]: 35500 M⁻¹ s⁻¹
Bgl1B (uncultured bacterium) | 270 ± 20 | 12.6 | 74700 | 
Bgl1B (uncultured bacterium; H228T) | 360 ± 30 | 10.1 | 24200 | 
Bgl1B (uncultured bacterium; N301Q/V302F) | 830 ± 70 | 8.84 | 2860 | 
